Results published in patent publication US20160032001A1 (APEXIGEN, published 2016).
Read-outs that look alike come from different tables or passages of the source.

T1: human RANKL protein (human, UniProt O14788 140-317, limits assumed)
T1 sequence (looked up): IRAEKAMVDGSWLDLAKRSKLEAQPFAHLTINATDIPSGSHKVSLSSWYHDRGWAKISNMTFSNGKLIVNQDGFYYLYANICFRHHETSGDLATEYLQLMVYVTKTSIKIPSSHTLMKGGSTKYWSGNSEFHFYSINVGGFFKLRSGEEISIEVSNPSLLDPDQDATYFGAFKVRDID

T2: RANKL expressed on the surface of 293 cells (UniProt O14788 1-317, limits assumed)
T2 construct: whole, on cells; also called RANKL-transfected 293 cells; cells expressing RANKL
T2 sequence (looked up): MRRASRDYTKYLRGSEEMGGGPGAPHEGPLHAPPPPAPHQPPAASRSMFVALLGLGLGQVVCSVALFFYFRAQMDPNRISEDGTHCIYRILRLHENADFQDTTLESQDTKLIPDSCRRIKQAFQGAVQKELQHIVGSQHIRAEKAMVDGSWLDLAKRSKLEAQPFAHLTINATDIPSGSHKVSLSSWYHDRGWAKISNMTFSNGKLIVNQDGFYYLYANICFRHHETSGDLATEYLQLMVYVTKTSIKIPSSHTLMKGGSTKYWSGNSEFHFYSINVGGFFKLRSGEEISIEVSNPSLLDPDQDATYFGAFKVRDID


Legend:
[1] = molecular target: T1, human RANKL protein; assay: competition ELISA: RANKL (0.5 ug/ml) pre-incubated with the antibody, then binding to coated human RANK (8 ug/ml) detected; blocked partner RANK
[2] = molecular target: T2, RANKL expressed on the surface of 293 …; assay: flow cytometry (MFI) on RANKL-transfected 293 cells
[3] = molecular target: T1, human RANKL protein; assay: competition ELISA: RANKL (0.5 ug/ml) pre-incubated with the antibody, then binding to coated RANK (8 ug/ml) detected; blocked partner RANK [table at the lower right]
[4] = molecular target: T2, RANKL expressed on the surface of 293 …; assay: flow cytometry (MFI) on RANKL-transfected 293 cells; remark: listed apart in the source
[5] = molecular target: T1, human RANKL protein; assay: surface plasmon resonance
[6] = molecular target: T1, human RANKL protein; assay: cell-based or functional assay
[7] = molecular target: T2, RANKL expressed on the surface of 293 …; assay: flow cytometry (MFI) on RANKL-transfected 293 cells; remark: listed apart in the source
[8] = molecular target: T1, human RANKL protein; assay: competition ELISA: RANKL (0.5 ug/ml) pre-incubated with the antibody, then binding to coated human RANK (8 ug/ml) detected; blocked partner RANK; remark: listed apart in the source
[9] = molecular target: T2, RANKL expressed on the surface of 293 …; assay: flow cytometry (MFI) on RANKL-transfected 293 cells; remark: listed apart in the source
[10] = molecular target: T1, human RANKL protein; assay: competition ELISA: RANKL (0.5 ug/ml) pre-incubated with the antibody, then binding to coated human RANK (8 ug/ml) detected; blocked partner RANK; remark: listed apart in the source
[11] = molecular target: T2, RANKL expressed on the surface of 293 …; assay: flow cytometry (MFI) on RANKL-transfected 293 cells; remark: listed apart in the source
[12] = molecular target: T1, human RANKL protein; assay: ELISA on RANKL protein (OD450nm)

Row | Binder | IC50 [3] | Kd [5] | koff [5] | kon [5] | IC50 in a RAW cell assay (TRAP activity, OD 405 nM) [6] | EC50 [7] | further results
1 | clone 23 rabbit anti-RANKL antibody (antibody, V domains shown, also called RabMAb 23; parent 23 rabbit antibody) VH: QEQLKESGGGLVTPGGTLTLTCTASGFSLSSDGMSWVRQAPGKGLEWIGYIYSGSSPYYANWAKGRFTISKTSSTTVDLKMTSLTTEDTATYFCARHGSGGGWYLDIWGPGTLVTVSS VL: AYDMIQTPASVEVAVGGTVTINCQASQTIGTNLAWYQQKPGQRPKLLIYAASTLPSGVSSRFKGSGSGTQFTLTISDVECSDAATYYCQQAYSVGNVDNAFGGGTEVVVK | 0.041 µg/mL | 0.162 nM | 0.000154 s⁻¹ | 950000 M⁻¹ s⁻¹ | 0.00171 µg/mL | – | IC50 [1]: 0.0111 µg/mL; EC50 [2]: 0.0903 µg/mL; EC50 [4]: 0.1 µg/mL
2 | clone EBI-51-22 rabbit anti-RANKL antibody (antibody, V domains shown) VH: QSVEESGGRLVTPGTLLTLTCTVSGFSLSTDVLSWVRQAPGKGLEWIGYTWSGGSTYYASWAKGRFTISKTSSTTVDLKITSPTTEDTATYFCARGFNPFDPWGPGTLVTVSS VL: DMTQTPASVSDPVGGTVTIKCQASQNIGSNLAWYQQKPGQRPKLLIYRASTLASGVSSRFKGSGSGTQFTLTISDLECADAATYYCQQGYSAGNVDNNAFGGGTEVVVK | 0.083 µg/mL | 0.312 nM | 0.000275 s⁻¹ | 880000 M⁻¹ s⁻¹ | 0.0036 µg/mL | 0.4 µg/mL | IC50 [8]: 0.0439 µg/mL; EC50 [9]: 0.083 µg/mL
3 | clone 408 rabbit anti-RANKL antibody (antibody, V domains shown) VH: QSVEESGGRLVTPGTPLTLTCTVSGFSLSTDVVSWVRQAPGKGLEWIGYTWNGGATFYASWAKGRFTFSKTSTTVDLKITSPTTEDTATYFCARGYNGMDPWGPGTLVTVSS VL: DMTQTPASVEAAVGGAVTIKCQASQNIGSNLAWYHQKPGQPPKLLISKASTLASGVPSRFKGSGSGTEFTLAISDLECADAATYYCQQGYTTKNVVNPFGGGTEVVVK | 0.098 µg/mL | 0.432 nM | 0.000262 s⁻¹ | 607000 M⁻¹ s⁻¹ | 0.00644 µg/mL | 0.303 µg/mL | IC50 [10]: 0.058 µg/mL; EC50 [11]: 0.0898 µg/mL
4 | humanized clone 23 antibody, VH 23HZD-1 HC with humanized VL 23 Vk (antibody, V domains shown, also called humanized 23 Vk; 23LHZD) VH: EVQLVESGGGLVQPGGSLRLSCAASGFSLSSDGMSWVRQAPGKGLEWIGYIYSGSSPYYANWAKGRFTISKDSSKNTVYLQMNSLRAEDTAVYFCARHGSGGGWYLDIWGPGTLVTVSS VL: DIQMTQSPSSLSASVGDRVTINCQASQTIGTNLAWYQQKPGKRPKLLIYAASTLPSGVPSRFSGSGSGTDFTLTISSLQPEDFATYYCQQAYSVGNVDNAFGGGTKVEIK | 0.112 µg/mL | – | – | – | – | – | EC50 [4]: 0.414 µg/mL
5 | humanized clone 408 anti-RANKL antibody (antibody, V domains shown) VH: EVQLVESGGGLVQPGGSLRLSCAVSGFSLSTDVVSWVRQAPGKGLEWIGYTWNGGATFYASWAKGRFTFSKDSSKNTVYLQMNSPRAEDTAVYFCARGYNGMDPWGPGTLVTVSS VL: DIQMTQSPSSLSASVGDRVTIKCQASQNIGSNLAWYQQKPGKPPKLLISKASTLASGVPSRFSGSGSGTDFTLTISSLQPEDFATYYCQQGYTTKNVVNPFGGGTKVEIK | 0.096 µg/mL | – | – | – | – | 0.731 µg/mL | –
6 | humanized clone EBI-51-22 anti-RANKL antibody (antibody, V domains shown, also called humanized EBI-51-22; humanized EBI51-22) VH: EVQLVESGGGLVQPGGSLRLSCAVSGFSLSTDVLSWVRQAPGKGLEWIGYTWSGGSTYYASWAKGRFTISKDSSKNTVYLQMNSPRAEDTAVYFCARGFNPFDPWGPGTLVTVSS VL: DIQMTQSPSSLSASVGDRVTIKCQASQNIGSNLAWYQQKPGKRPKLLIYRASTLASGVPSRFSGSGSGTDFTLTISSLQPEDFATYYCQQGYSAGNVDNNAFGGGTKVEIK | 0.127 µg/mL | – | – | – | – | 0.361 µg/mL | –
7 | humanized clone 23 antibody, VH 23HZD-1 HC with humanized VL 23 Vkb, IgG1 (antibody, V domains shown, also called h23 IgG1) VH: EVQLVESGGGLVQPGGSLRLSCAASGFSLSSDGMSWVRQAPGKGLEWIGYIYSGSSPYYANWAKGRFTISKDSSKNTVYLQMNSLRAEDTAVYFCARHGSGGGWYLDIWGPGTLVTVSS VL: DIQMTQSPSSLSASVGDRVTINCQASQSIGSNLAWYQQKPGKRPKLLIYAASTLPSGVPSRFSGSGSGTDFTLTISSLQPEDFATYYCQQAYSVGNVDNAFGGGTKVEIK | – | – | – | – | – | – | EC50 [12]: 0.0425 µg/mL
